Measurements reported in paper PMC9734137 (2022).
Where two headings read alike, the source gives them in different places.

B1: aSA3 (VHH)
VHH: QVQLVESGGGLVQPGGSLRLSCAASGFTSDHYALAWFRQAPGKEREGVSCIDSDGNPFYADSVKGRFTGSRDNAKNTVYLQMNSLKLEDTAVYYCAAGLWYGRSLNSFDYDYWGQGTQVTVSS
B2: aSA3-Fc (Fc fusion)
chain: B1 VHH

Columns and labels:
WT SARS2 RBD [1] = target: T1, WT SARS2 RBD (SARS-CoV-2, UniProt P0DTC2 321-591); test: SPR
SARS1 RBD [2] = target: SARS1 RBD (SARS-CoV-1); test: SPR
WT SARS2 RBD [3] = target: T1, WT SARS2 RBD; test: SPR; remark: listed apart in the source
SARS1 RBD [4] = target: SARS1 RBD (SARS-CoV-1); test: SPR; remark: listed apart in the source
WT SARS2 RBD [5] = target: T1, WT SARS2 RBD; test: ELISA

Binder | koff (WT SARS2 RBD [1]) [s⁻¹] | koff (SARS1 RBD [2]) [s⁻¹] | koff (WT SARS2 RBD [3]) [s⁻¹] | koff (SARS1 RBD [4]) [s⁻¹] | EC50 (WT SARS2 RBD [5]) [nM]
B1 | 9.77e-05 | 0.000364 | – | – | –
B2 | – | – | 1.44e-05 | 8.26e-05 | 0.74
